The record followed here is US20240158512A1 (TRUEBINDING, published 2024).

Several values for one entry are separate records, joined by “and”; a condition that tells them apart may be missing. Equal entries are not always repeated.

Assay [1] concerns the target T1, Galectin-3 (UniProt P17931 1-250, limits assumed).
T1 construct: Target of the anti-Gal3 antibody TB006; also called Gal3; GAL3
Briefly: BLI; after 4 C for 1 month.

Assay [2] deals with T1, Galectin-3. Briefly: BLI; after 40 C for 28 days. Background: BLI is a label-free optical method that tracks binding on a fibre tip over time.
The target in assay [3] is T1, Galectin-3. The experiment in a line: BLI; after 40 C for 7 days.
The target of assay [4] is T1, Galectin-3. Briefly: BLI; after -80 C for 3 months.
Assay [5] concerns the target T1, Galectin-3. The experiment in a line: BLI; after -80 C for 9 months.
Assay [6] concerns the target T1, Galectin-3. Briefly: BLI; after 5 freeze/thaws, 75% vol. of container.
The target in assay [7] is T1, Galectin-3. Briefly: ELISA (Biological Activity); long-term stability 5 C, 3 months. For orientation: ELISA stands for enzyme-linked immunosorbent assay.
Assay [8] addresses T1, Galectin-3. The experiment in a line: BLI; after pipetting (shear stress).
The target of assay [9] is T1, Galectin-3. The experiment in a line: BLI (Binding Activity); long-term stability 5 C, 3 months.
Assay [10] has as its target T1, Galectin-3. Briefly: BLI; after 5 freeze/thaws, 50% vol. of container.
The target of assay [11] is T1, Galectin-3. Briefly: BLI; after 3 freeze/thaws, 50% vol. of container.
Assay [12] has as its target T1, Galectin-3. The experiment in a line: BLI (Binding Activity); long-term stability 5 C, 1 month.
For assay [13], the target named is T1, Galectin-3. Briefly: BLI; after -80 C for 1 month.
Assay [14] concerns the target T1, Galectin-3. The experiment in a line: ELISA (Biological Activity); accelerated stability 25 C/60% RH, 3 months.
The target of assay [15] is T1, Galectin-3. The experiment in a line: ELISA blocking assay; TB006 diluted to 0.31 mg/mL in 0.9% NaCl, 25 C, 1 h; blocked partner not named.
Assay [16] has as its target T1, Galectin-3. Briefly: BLI; after 25 C for 1 month.
For assay [17], the target named is T1, Galectin-3. The experiment in a line: ELISA (Biological Activity); accelerated stability 25 C/60% RH, 1 month.
Assay [18] deals with T2, Galectin-3 (Gal3) (UniProt P17931 1-250, limits assumed).
T2 construct: Target of TB006
Briefly: BLI; 20 mg/mL DS after -80 C for 18 months. The method, boiled down:
(§1)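 Samples were taken at time zero or after stress: agitation (shear), repeated freeze-thaw cycles, or storage at set temperatures, including a 40° C stress test and cryogenic storage. Binding to Galectin-3 was measured by biolayer interferometry and reported as the dissociation constant (Kd).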

In assay [19] the target is T2, Galectin-3 (Gal3). The experiment in a line: BLI; 20 mg/mL DS after -80 C for 1 month. In a few lines: as §1
The target of assay [20] is T2, Galectin-3 (Gal3). Briefly: BLI; 50 mg/mL DS after -80 C for 3 months.
Assay [21] addresses T2, Galectin-3 (Gal3). Briefly: BLI; 20 mg/mL DS after 4 C for 3 months.
Assay [22] has as its target T2, Galectin-3 (Gal3). The experiment in a line: BLI; 50 mg/mL DS after -80 C for 6 months.
The target in assay [23] is T2, Galectin-3 (Gal3). The experiment in a line: BLI; 20 mg/mL DS after 40 C for 14 days.
For assay [24], the target named is T2, Galectin-3 (Gal3). Briefly: BLI; 20 mg/mL DS after agitation for 1 day. In a few lines: as §1
Assay [25] addresses T2, Galectin-3 (Gal3). Briefly: BLI; 50 mg/mL DS after 4 C for 1 month.
In assay [26] the target is T2, Galectin-3 (Gal3). The experiment in a line: BLI; 50 mg/mL DS after agitation for 1 day.
Assay [27] deals with T2, Galectin-3 (Gal3). The experiment in a line: BLI; 20 mg/mL DS after 3 freeze/thaws. The method, boiled down: as §1
Assay [28] concerns the target T2, Galectin-3 (Gal3). Briefly: BLI; 50 mg/mL DS after 40 C for 21 days.
In assay [29] the target is T2, Galectin-3 (Gal3). Briefly: BLI; 20 mg/mL DS after 25 C for 3 months. The method, boiled down:
as §1

The target in assay [30] is T2, Galectin-3 (Gal3). The experiment in a line: BLI; 20 mg/mL DS after 5 freeze/thaws. The method, boiled down:
as §1

Assay [31] concerns the target T2, Galectin-3 (Gal3). The experiment in a line: BLI; 20 mg/mL DS after -80 C for 9 months.
Assay [32] concerns the target T2, Galectin-3 (Gal3). The experiment in a line: BLI; 20 mg/mL DS after -80 C for 3 months.
Assay [33] addresses T2, Galectin-3 (Gal3). Briefly: BLI; 50 mg/mL DS, time 0 control.

T2 sequence (P17931 whole entry): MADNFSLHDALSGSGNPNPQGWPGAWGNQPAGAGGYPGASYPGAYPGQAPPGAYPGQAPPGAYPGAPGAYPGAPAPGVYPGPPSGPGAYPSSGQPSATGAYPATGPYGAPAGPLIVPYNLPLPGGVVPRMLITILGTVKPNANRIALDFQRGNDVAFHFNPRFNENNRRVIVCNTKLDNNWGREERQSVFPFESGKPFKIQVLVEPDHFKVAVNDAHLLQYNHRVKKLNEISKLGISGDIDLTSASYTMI
T1 sequence (P17931 whole entry): as above

B1: TB006 (antibody, human IgG4 S228P, kappa, V domains shown)
VH: QVQLVQSGAEVKKPGASVKVSCKASGYSFTNYYMHWVRQAPGQRLEWMGWIYPGSGNTNYNEKFQGRVTITADTSASTAYMELSSLRSEDTAVYYCSTAPGGFDVWGQGTTVTVSS
VL: DIVMTQTPLSLSVTPGQPASISCKSSKSLLHSDGITYLYWYLQKPGQSPQLLIYRMSNLASGVPDRFSGSGSGTDFTLKISRVEAEDVGVYYCAQMLEFPLTFGQGTKLEIKR
notes: Tested as formulated drug substance or drug product in 20 mM L-histidine, 5 mM methionine, 100 mM NaCl, 0.02% polysorbate 80, pH 5.8, or diluted in 0.9% saline; also called 4A11.H3L1; IMT006a
For B1, the Kd (in general, the constant that tells how readily two partners part at equilibrium) with Galectin-3 [1] worked out at 3.3 nM; with Galectin-3 [2] it was 3.1 nM; with Galectin-3 [3], 2.4 nM; in the assay with Galectin-3 [4], 3.3 nM; in the assay with Galectin-3 [5], 2 nM; in the assay with Galectin-3 [6], 2.9 nM. In addition, the Kd was 2.8 nM with Galectin-3 [8]; 3 nM with Galectin-3 [9]; 3.1 nM in the assay with Galectin-3 [10]; 2.3 nM with Galectin-3 [11]; 2.5 nM with Galectin-3 [12]; 3.2 nM in the assay with Galectin-3 [13]. For the same molecule, in the assay with Galectin-3 [16], binding was put at a Kd of 3.1 nM. In addition, the IC50 (as a rule, the concentration needed to halve the response being measured) with Galectin-3 [7] is 1.5 µg/mL; with Galectin-3 [14], 1.5 µg/mL; in the assay with Galectin-3 [15], 1.63 µg/mL and 1.43 µg/mL; with Galectin-3 [17], 1.8 µg/mL.

B2: TB006 (antibody, human IgG4 S228P, kappa, V domains shown)
VH: B1 VH
VL: B1 VL
notes: Full antibody tested as drug substance (DS) in 20 mM L-histidine, 5 mM methionine, 100 mM NaCl, 0.02% polysorbate-80, pH 5.8; also called 4A11.H3L1; IMT006a
Consider B2, for which the Kd stood at 4.2 nM with Galectin-3 (Gal3) [18]; 3.6 nM with Galectin-3 (Gal3) [19]; 2.5 nM with Galectin-3 (Gal3) [20]; 3.4 nM with Galectin-3 (Gal3) [21]; 1.8 nM in the assay with Galectin-3 (Gal3) [22]; 2.9 nM with Galectin-3 (Gal3) [23]. Besides, the Kd with Galectin-3 (Gal3) [24] was 3.1 nM; with Galectin-3 (Gal3) [25], 2.1 nM; with Galectin-3 (Gal3) [26], 3.8 nM; in the assay with Galectin-3 (Gal3) [27] it was 3.3 nM; with Galectin-3 (Gal3) [28], 3 nM; with Galectin-3 (Gal3) [29] it was 3.4 nM. The Kd with Galectin-3 (Gal3) [30] was found to be 3.1 nM; with Galectin-3 (Gal3) [31], 1.7 nM; in the assay with Galectin-3 (Gal3) [32] it was 3.5 nM; with Galectin-3 (Gal3) [33] it was 2.6 nM.
